Results on five molecules are retold here after publication PMC3792639, “Complex structure of type VI peptidoglycan muramidase effector and a cognate immunity protein” (Acta Crystallographica Section D: Biological Crystallography, 2013).

Numbering of substitutions follows the chain as printed.

Sequences and labels used below:
T1: Tse3 (type VI secretion exported 3), native recombinant protein (P. aeruginosa, UniProt Q9HYC5 1-408)
T1 construct: Tse3, type VI secretion exported 3, peptidoglycan muramidase effector of Pseudomonas aeruginosa; full-length, synthetic gene in pET-22b (NdeI/XhoI); Removal of the His tag is not mentioned; also called muramidase effector; source: E. coli BL21(DE3), purified (Ni-NTA, cation exchange, SEC)
T1 sequence: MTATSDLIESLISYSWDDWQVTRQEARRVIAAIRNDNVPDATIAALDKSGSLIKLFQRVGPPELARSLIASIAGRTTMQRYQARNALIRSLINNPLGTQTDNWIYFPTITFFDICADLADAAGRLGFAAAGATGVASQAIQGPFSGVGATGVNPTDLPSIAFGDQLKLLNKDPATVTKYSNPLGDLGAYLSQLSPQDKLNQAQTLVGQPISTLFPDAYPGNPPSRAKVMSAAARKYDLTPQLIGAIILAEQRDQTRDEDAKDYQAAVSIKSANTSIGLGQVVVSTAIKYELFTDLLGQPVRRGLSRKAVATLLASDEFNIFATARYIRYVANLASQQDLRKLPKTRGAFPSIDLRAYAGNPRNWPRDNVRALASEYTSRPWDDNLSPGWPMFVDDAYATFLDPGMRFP

B1: Tsi3, truncated, without the N-terminal signal peptide (wild type) (natural protein)
chain: GVDFDKTLTHPNGLVVERPVGFDARRSAEGFRFDEGGKLRNPRQLEVQRQDAPPPPDLASRRLGDGEARYKVEEDDGGSAGSEYRLWAAKPAGARWIVVSASEQSEDGEPTFALAWALLERARLQ
notes: Tsi3, immunity protein of Tse3, Pseudomonas aeruginosa; truncated, without the N-terminal signal peptide (residues 1-20); synthetic gene in pET-22b (NdeI/XhoI); also called wild-type Tsi3; cognate immunity protein; source: E. coli BL21(DE3), purified (Ni-NTA, ion exchange, SEC)
B2: Tsi3 E126A (natural protein)
chain: B1 chain with E106A
notes: Tsi3, Pseudomonas aeruginosa, mutant of the truncated construct without the signal peptide (residues 1-20)
B3: Tsi3 E103A (natural protein)
chain: B1 chain with E83A
notes: as for B2
B4: Tsi3 S99A (natural protein)
chain: B1 chain with S79A
notes: as for B2
B5: Tsi3 Q124A (natural protein)
chain: B1 chain with Q104A
notes: as for B2

The target of the first assay is T1, Tse3 (type VI secretion exported 3), …. Kind of assay: not stated; stoichiometry observed in solution; method not given. The note with it: both partners purified.
Usually stoichiometry N stands for the number of molecules, sites or subunits per partner or assembly. With B1, the “stoichiometry N” value came to 1.

The target is the same in the next assay. Kind of assay: SPR; Biacore 3000, 298 K; Tse3 immobilised on a CM5 chip (2689.1-3396.3 RU); Tsi3 injected, single-cycle kinetics, five concentrations (0.02-1.62 µM for wild type, E103A, Q124A; 0.1-8.1 µM for R60A, S99A, E126A); running buffer 50 mM HEPES pH 7.5, 100 mM NaCl, 0.005% Tween-20; 1:1 Langmuir fit. The note with it: both partners purified.
As usually defined, the Kd is the concentration at which binding is half-saturated. As a reminder, the kon is the rate constant with which the complex forms. B1: the equilibrium dissociation constant (Kd) worked out at 28.1 nM and the kon was 12900 M⁻¹ s⁻¹.
Take B2: the dissociation constant Kd was 417 nM and the on-rate (kon) was 12100 M⁻¹ s⁻¹.
For B3, in that order: 43.6 nM and 14300 M⁻¹ s⁻¹.
The like results for B4 were, in that order, 3290 nM and 8990 M⁻¹ s⁻¹.
On to B5, for which the Kd was 58.8 nM and the kon stood at 17300 M⁻¹ s⁻¹.
